From the supplement of paper PMC7877785
± gives the uncertainty stated by the source.

Test: self-splicing fitness, log relative to wild type (ln ratio); higher = more splicing; Tetrahymena group I intron in knt gene, E. coli kanamycin selection, DiMSum; sequences stand for … in CUCUCU…GGAGGGAAAAGUUAUCAGGCAUGCACCUGGUAGCUAGUCUUUAAACCAAUAGAUUGCAUCGGUUUAAAAGGCAAGACCGUCAAAUUGCGGGAAAGGGGUCAACAGCCGUUCAGUACCAAGUCUCAGGGGAAACUUUGAGAUGGCCUUGCAAAGGGUAUGGUAAUAAGCUGACGGACAUGGUCCUAACCACGCAGCCAAGUCCUAAGUCAACAGAUCUUCUGUUGAUAUGGAUGCAGUUCACAGACUAAAUGUCGGUCGGGGAAGAUGUAUUCUUCUCAUAAGAUAUAGUCGGACCUCUCCUUAAUGGGAGCUAGCGGAUGAAGUGAUGCAACACUGGAGCCGCUGGGAACUAAUUUGUAUGCGAAAGUAUAUUGAUUAGUUUUGGAGUACUCGUGGUCG
Outline: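 Library with all eight P1ex-region intron nucleotides randomised, intron inside the knt kanamycin-resistance gene on pET-22b(+), in E. coli BL21(DE3). Cells grew overnight at 37°C or 30°C on LB agar with or without 25 μg/mL kanamycin (plus 100 μg/mL carbenicillin, 50 μM IPTG, 0.2% rhamnose), in six replicate transformations. Pooled colonies were amplicon-sequenced on Illumina HiSeq 2500. DiMSum fitness is the error-weighted combination of wild-type-normalised replicate fold changes, kanamycin versus none.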

Sequence | self-splicing fitness (ln) (30 °C) | self-splicing fitness (ln) (37 °C)
AGCUAGCAAUAUUACGAUCA | -2.01 ± 0.12 | -0.168 ± 0.11
UCAUAGCAAUAUUACGGUGC | -2.88 ± 0.21 | -3.08 ± 0.26
UGGUAGCAAUAUUACGCUUC | -2.63 ± 0.29 | -0.643 ± 0.35
CUCAAGCAAUAUUACGGGGG | -4.01 ± 0.23 | -2.88 ± 0.2
UUUUAGCAAUAUUACGAUGU | -2.19 ± 0.23 | -1.6 ± 0.16
GGAUAGCAAUAUUACGGACC | -0.822 ± 0.22 | -0.154 ± 0.25
UACAAGCAAUAUUACGCGUA | -2.92 ± 0.24 | -2.76 ± 0.33
GAAAAGCAAUAUUACGUUGA | -2.87 ± 0.15 | -1.24 ± 0.1
CAAGAGCAAUAUUACGCCUA |  | -1.91 ± 0.43
AAUAAGCAAUAUUACGGCUC | -0.468 ± 0.13 | 0.129 ± 0.15
AAGCAGCAAUAUUACGCAUU | -2.49 ± 0.12 | -1.23 ± 0.12
CCUUAGCAAUAUUACGGUUU | -4.06 ± 0.16 | -2.42 ± 0.14
GGUGAGCAAUAUUACGUCUA | -1.91 ± 0.16 | -1.42 ± 0.15
UAGGAGCAAUAUUACGAAUC |  | -2.02 ± 0.26
ACUGAGCAAUAUUACGGAUC |  | -1.91 ± 0.35
AAAUAGCAAUAUUACGGGAA | -3.24 ± 0.28 | -1.34 ± 0.19
AAAGAGCAAUAUUACGCAUA | -2.55 ± 0.23 | -1.42 ± 0.22
ACUGAGCAAUAUUACGUAUA | -2.58 ± 0.2 | -1.97 ± 0.25
GAGGAGCAAUAUUACGUUCG | -1.89 ± 0.2 | -1.27 ± 0.23
AGACAGCAAUAUUACGAUGA | -2.02 ± 0.12 | -0.531 ± 0.094
CACCAGCAAUAUUACGACAG | 0.251 ± 0.06 | 0.634 ± 0.083

Sequence | self-splicing fitness (ln) (30 °C) | self-splicing fitness (ln) (37 °C)
UUACAGCAAUAUUACGGAAG | -3 ± 0.13 | -2.05 ± 0.14
UUAAAGCAAUAUUACGACAC | -1.54 ± 0.18 | -0.0824 ± 0.22
CGGUAGCAAUAUUACGGACC | -3.71 ± 0.35 | -1.29 ± 0.21
AGUUAGCAAUAUUACGUUGG | -2.67 ± 0.19 | -2.3 ± 0.21
GAGCAGCAAUAUUACGGAAG | -3.65 ± 0.21 | -3.24 ± 0.26
GGGUAGCAAUAUUACGGGCC | -2.03 ± 0.38 | 
CCUUAGCAAUAUUACGCCUU | -3.52 ± 0.32 | -2.57 ± 0.24
AGCAAGCAAUAUUACGUGCA | -0.675 ± 0.058 | 0.058 ± 0.077
UAAUAGCAAUAUUACGCGAU | -3.2 ± 0.28 | -1.86 ± 0.24
GCCGAGCAAUAUUACGAGUU | -1.62 ± 0.12 | -0.709 ± 0.15
AGUGAGCAAUAUUACGUUAA | -2.56 ± 0.31 | -1.57 ± 0.25
GAGGAGCAAUAUUACGUUGG |  | -1.46 ± 0.42
ACCGAGCAAUAUUACGUCGU | -3.09 ± 0.13 | -1.04 ± 0.11
CGCGAGCAAUAUUACGAGUC | -2.7 ± 0.38 | -1.57 ± 0.29
GUGCAGCAAUAUUACGUGGU | -2.55 ± 0.078 | -1.1 ± 0.091
AUCCAGCAAUAUUACGAAAA | -1.79 ± 0.12 | -1.02 ± 0.12
AUUCAGCAAUAUUACGGUGG | -3.09 ± 0.15 | -1.58 ± 0.14
CGACAGCAAUAUUACGUCCU | -0.518 ± 0.072 | -0.311 ± 0.078
UAUAAGCAAUAUUACGAAGA | -2.72 ± 0.24 | -1.66 ± 0.16
GAUCAGCAAUAUUACGGUUA | -0.25 ± 0.066 | 0.171 ± 0.067
CAUUAGCAAUAUUACGAUUU | -2.32 ± 0.13 | -1.56 ± 0.15

Sequence | self-splicing fitness (ln) (30 °C) | self-splicing fitness (ln) (37 °C)
UCUUAGCAAUAUUACGCUCU | -1.99 ± 0.24 | -1.61 ± 0.29
AAGGAGCAAUAUUACGUCGA | -1.74 ± 0.2 | -1.89 ± 0.2
UUCGAGCAAUAUUACGCACC | -3.33 ± 0.29 | -1.91 ± 0.24
AUGCAGCAAUAUUACGCGGG | -2.94 ± 0.17 | -2.49 ± 0.17
UUCGAGCAAUAUUACGGCGC | -2.99 ± 0.34 | -2.36 ± 0.39
GAUCAGCAAUAUUACGAGCU | -1.42 ± 0.15 | -0.233 ± 0.15
UGAAAGCAAUAUUACGUGGU | -3.22 ± 0.17 | -2.55 ± 0.23
GGCCAGCAAUAUUACGUGUA | -2.41 ± 0.083 | -1.51 ± 0.1
UAGCAGCAAUAUUACGUGGU | -3.87 ± 0.2 | -2.79 ± 0.16
GUUGAGCAAUAUUACGGGGU | -3.56 ± 0.25 | -2.42 ± 0.22
GGACAGCAAUAUUACGCCGC |  | -1.06 ± 0.5
UGACAGCAAUAUUACGGUAA | -1.85 ± 0.12 | -0.692 ± 0.11
GCUUAGCAAUAUUACGGGUA | -1.43 ± 0.15 | -0.513 ± 0.12
UCUGAGCAAUAUUACGUCGA | -0.0432 ± 0.089 | 0.353 ± 0.12
GCACAGCAAUAUUACGACAU | -0.894 ± 0.011 | -0.217 ± 0.032
CCGGAGCAAUAUUACGGGAU | -3.11 ± 0.36 | -2.44 ± 0.25
CUGCAGCAAUAUUACGAACA | -3.3 ± 0.24 | -1.49 ± 0.14
ACUGAGCAAUAUUACGCACU | -0.721 ± 0.13 | -0.386 ± 0.17
AUUAAGCAAUAUUACGCUCA | -0.292 ± 0.068 | -0.258 ± 0.091
CGGUAGCAAUAUUACGGGAA | -3.45 ± 0.41 | -2.75 ± 0.29
